Experimental data published in patent US10512676B2, “Formulations comprising recombinant acid alpha-glucosidase” (Amicus Therapeutics, Inc., priority 2016, dated 2019).

Tests used:
[1] = system: Pompe fibroblasts and skeletal muscle myoblasts; experiment: Internalization by Pompe fibroblasts and skeletal muscle myoblasts; type: cell-based
[2] = system: Gaa KO mice; experiment: Muscle function in Gaa-knockout mice, 12 biweekly administrations (grip strength, wire hang); type: in vivo, mouse; settings: 6 months, with or without miglustat
From the text: In FIG. 18A, * indicates statistically significant compared to Lumizyme® alone (p<0.05, 2-sided t-test). In FIGS. 19A-19G, * indicates statistically significant compared to Lumizyme® alone (p<0.05, multiple comparison using Dunnett's method under one-way ANOVA analysis).

[3] = system: Gaa knockout mice; experiment: Muscle physiology and morphology in Gaa-knockout mice (LAMP1, PAS, vacuoles); type: in vivo, mouse
Method: Control mice were treated with vehicle alone. Soleus, quadriceps and diaphragm tissue is harvested two weeks after the last dose of recombinant human acid α-glucosidase. […] Semi-thin sections of quadriceps muscle embedded in epoxy resin (Epon) were stained with methylene blue and observed by […] (1000×) to determine the extent of the presence of vacuoles. Quadriceps muscle samples were analyzed immunohistochemically to determine levels of the autophagy markers microtubule-associated protein 1A/1B-light chain 3 phosphatidylethanolamine conjugate (LC3A II) and p62, the insulin-dependent glucose transporter GLUT4 and the insulin-independent glucose transporter GLUT1. […] Control mice were treated with vehicle alone. Cardiac muscle tissue was harvested two weeks after the last dose of recombinant human acid α-glucosidase and analyzed for glycogen levels, by staining with periodic acid—Schiff reagent (PAS), and for lysosome proliferation, by measuring levels of LAMPI.

[4] = Plasma total GAA protein pharmacokinetics, phase 1/2 study in adults with Pompe disease; type: in vivo, human; settings: for Total GAA Protein AUC0-t / Total GAA Protein AUC0-∞ / Total GAA Protein Cmax: n = 8, geometric mean
[5] = system: whole human blood; experiment: Hemolysis in whole human blood; type: cell-based; settings: for percent hemolysis / OD540 With Blood / % Hemolysis: 1 hour at 37° C.; for % Hemolysis: water = 100%
Method: A series of dilutions of blood (1:2, 1:3, 1:4, 1:5, and 1:10) from a human donor were prepared in saline. […] Four types of samples were tested: the test article, placebo, positive control and negative control. […] The placebo was the same as the test article except there was no ATB200 rhGAA.
Samples were incubated without agitation for 1 hour at 37° C. After incubation, the tubes were centrifuged for 10 minutes at approximately 100× g at room temperature. The amount of hemoglobin in the supernatant of each sample was analyzed spectrophotometrically at 540 nm.
The percent hemolysis for the test article was determined by the formula: […]
The percent hemolysis of water plus blood is 100%. Saline was the negative control. Hemolysis less than or equal to 10% was considered insignificant. The percent hemolysis was calculated for each concentration of the test article and for the placebo.

[6] = Flocculation in human plasma; parameters: key to Plasma Macro (precipitation/coagulation score) / Plasma Micro (precipitation/coagulation score) / Plasma Pellet (score): 0=negative; 1=very slight precipitation or pellet; 2=minimal precipitation or pellet; 3=moderate precipitation or pellet; 4=significant precipitation or pellet
Method: (§1) Test article dosing solutions (3 concentrations) and the placebo (3 concentrations) were mixed with equal volumes of human plasma and serum from a donor. […] The placebo was the same as the test article except there was no ATB200 rhGAA.
(§2) One ml of each dose of test article or placebo, was mixed with an equal volume of plasma, serum and saline. Samples were incubated for 30 minutes at room temperature. After incubation the tubes were examined macroscopically and microscopically for precipitation or coagulation. An aliquot from each tube was centrifuged at 14,000 rpm in a microcentrifuge for 10 minutes. Each tube was examined for the presence or absence of a pellet. Precipitation/coagulation and pellets were scored as follows: • 0=negative • 1=very slight precipitation or pellet • 2=minimal precipitation or pellet • 3=moderate precipitation or pellet • 4=significant precipitation or pellet

[7] = Flocculation in human serum; parameters: key to Serum Macro (precipitation/coagulation score) / Serum Micro (precipitation/coagulation score) / Serum Pellet (score): 0=negative; 1=very slight precipitation or pellet; 2=minimal precipitation or pellet; 3=moderate precipitation or pellet; 4=significant precipitation or pellet
Method: as §1, §2

[8] = Apparent plasma half-life in vivo
[9] = Cohort 1, 5 mg/kg alone, n = 8, arithmetic mean
[10] = Cohort 1, 10 mg/kg alone, n = 8, arithmetic mean
[11] = Cohort 1, 20 mg/kg alone, n = 8, arithmetic mean
[12] = Cohort 1, ATB200 20 mg/kg + miglustat high MD, n = 8, arithmetic mean
[13] = Cohort 1, ATB200 20 mg/kg + miglustat high SD, n = 7, arithmetic mean
[14] = Cohort 1, ATB200 20 mg/kg + miglustat low MD, n = 8, arithmetic mean
[15] = Cohort 1, ATB200 20 mg/kg + miglustat low SD, n = 8, arithmetic mean
[16] = Cohort 3, ATB200 20 mg/kg + miglustat high MD (first Cohort 3 line), n = 2, arithmetic mean
[17] = Cohort 3, ATB200 20 mg/kg + miglustat high MD (second Cohort 3 line), n = 2, arithmetic mean

ATB200: recombinant human acid α-glucosidase expressed in CHO cells with increased content of M6P-bearing N-glycans
Kuptake [1]: 7 to 14 nM
intracellular accumulation of dystrophin [2]: lowered intracellular accumulation of dystrophin in Gaa KO mice
lysosome proliferation (LAMP1) ([3]; 20 mg/kg every other week, heart, diaphragm, soleus): reduction in lysosome proliferation in heart, diaphragm and skeletal muscle (soleus) tissue compared to conventional treatment with alglucosidase alfa
punctate glycogen levels (PAS) ([3]; 20 mg/kg every other week, heart, soleus): reduction in punctate glycogen levels in heart and skeletal muscle (soleus) tissue compared to conventional treatment with alglucosidase alfa
number of vacuoles in muscle fiber in quadriceps ([3]; 20 mg/kg, two IV bolus administrations): significantly reduced the number of vacuoles in muscle fiber in the quadriceps of Gaa knockout mice
increase of distribution half-life (α-phase) ([4]; ATB200 20 mg/kg with miglustat 260 mg relative to ATB200 alone): 45%
increase of total GAA protein exposure (AUC) ([4]; ATB200 20 mg/kg with miglustat 260 mg relative to ATB200 alone at 20 mg/kg): approximately 25%
dose proportionality of plasma total GAA protein ([4]; ATB200 given alone, 5, 10, 20 mg/kg): increases in a slightly greater-than-dose-proportional manner
Total GAA Protein CLT [4, 9]: 2.1 L/h
Total GAA Protein VSS [4, 9]: 4.62 L
Total GAA Protein αt1/2 [4, 9]: 1.1 h
Total GAA Protein βt1/2 [4, 9]: 1.9 h
Total GAA Protein AUC0-t ([4]; Cohort 1, 5 mg/kg alone): 215 ng·h/mL
Total GAA Protein AUC0-∞ ([4]; Cohort 1, 5 mg/kg alone): 218 ng·h/mL
Total GAA Protein Cmax ([4]; Cohort 1, 5 mg/kg alone): 61 ng/mL
Total GAA Protein tmax ([4]; Cohort 1, 5 mg/kg alone, n = 8, median): 3.8 h
Total GAA Protein CLT [4, 10]: 1.59 L/h
Total GAA Protein VSS [4, 10]: 3.87 L
Total GAA Protein αt1/2 [4, 10]: 1.3 h
Total GAA Protein βt1/2 [4, 10]: 1.6 h
Total GAA Protein AUC0-t ([4]; Cohort 1, 10 mg/kg alone): 578 ng·h/mL
Total GAA Protein AUC0-∞ ([4]; Cohort 1, 10 mg/kg alone): 584 ng·h/mL
Total GAA Protein Cmax ([4]; Cohort 1, 10 mg/kg alone): 144 ng/mL
Total GAA Protein CLT [4, 11]: 1.22 L/h
Total GAA Protein VSS [4, 11]: 3.52 L
Total GAA Protein αt1/2 [4, 11]: 1.5 h
Total GAA Protein βt1/2 [4, 11]: 2.1 h
Total GAA Protein AUC0-t ([4]; Cohort 1, 20 mg/kg alone): 1508 ng·h/mL
Total GAA Protein AUC0-∞ ([4]; Cohort 1, 20 mg/kg alone): 1512 ng·h/mL
Total GAA Protein Cmax ([4]; Cohort 1, 20 mg/kg alone): 345 ng/mL
Total GAA Protein CLT [4, 12]: 0.98 L/h
Total GAA Protein αt1/2 [4, 12]: 2.1 h
Total GAA Protein βt1/2 [4, 12]: 2.5 h
Total GAA Protein CLT [4, 13]: 0.98 L/h
Total GAA Protein αt1/2 [4, 13]: 2.3 h
Total GAA Protein βt1/2 [4, 13]: 2.7 h
Total GAA Protein CLT [4, 14]: 1.02 L/h
Total GAA Protein αt1/2 [4, 14]: 1.9 h
Total GAA Protein βt1/2 [4, 14]: 2.5 h
Total GAA Protein CLT [4, 15]: 1.09 L/h
Total GAA Protein αt1/2 [4, 15]: 1.8 h
Total GAA Protein βt1/2 [4, 15]: 2.4 h
Total GAA Protein CLT [4, 16]: 0.69 L/h
Total GAA Protein αt1/2 [4, 16]: 2 h
Total GAA Protein βt1/2 [4, 16]: 2.4 h
Total GAA Protein CLT [4, 17]: 0.66 L/h
Total GAA Protein αt1/2 [4, 17]: 1.9 h
Total GAA Protein βt1/2 [4, 17]: 2.6 h
volume of distribution ([4]; in vivo): relatively high volume of distribution
percent hemolysis ([5]; 300 μg/ml): −0.1%
percent hemolysis ([5]; 600 μg/ml): −1.5%
percent hemolysis ([5]; 1000 μg/ml): −1.5%
OD540 Without Blood ([5]; Concentration 300 μg/mL): 0.001
OD540 With Blood ([5]; Concentration 300 μg/mL): 0.016
% Hemolysis ([5]; Concentration 300 μg/mL): −0.10%
OD540 Without Blood ([5]; Concentration 600 μg/mL): 0.002
OD540 With Blood ([5]; Concentration 600 μg/mL): 0.003
% Hemolysis ([5]; Concentration 600 μg/mL): −1.52%
OD540 Without Blood ([5]; Concentration 1000 μg/mL): 0.003
OD540 With Blood ([5]; Concentration 1000 μg/mL): 0.004
% Hemolysis ([5]; Concentration 1000 μg/mL): −1.52%
Plasma Macro (precipitation/coagulation score) ([6]; Final concentration 300 μg/mL): 0
Plasma Micro (precipitation/coagulation score) ([6]; Final concentration 300 μg/mL): 0
Plasma Pellet (score) ([6]; Final concentration 300 μg/mL): 0
Plasma Macro (precipitation/coagulation score) ([6]; Final concentration 600 μg/mL): 0
Plasma Micro (precipitation/coagulation score) ([6]; Final concentration 600 μg/mL): 0
Plasma Pellet (score) ([6]; Final concentration 600 μg/mL): 0
Plasma Macro (precipitation/coagulation score) ([6]; Final concentration 1000 μg/mL): 0
Plasma Micro (precipitation/coagulation score) ([6]; Final concentration 1000 μg/mL): 0
Plasma Pellet (score) ([6]; Final concentration 1000 μg/mL): 0
pellet after centrifugation ([6]; human plasma, 14,000 rpm 10 minutes): no pellets were observed
precipitation, macroscopic and microscopic ([6]; human plasma, each ATB200 concentration, 30 minutes at room temperature): No precipitation was observed macroscopically or microscopically
Serum Macro (precipitation/coagulation score) ([7]; Final concentration 300 μg/mL): 0
Serum Micro (precipitation/coagulation score) ([7]; Final concentration 300 μg/mL): 0
Serum Pellet (score) ([7]; Final concentration 300 μg/mL): 0
Serum Macro (precipitation/coagulation score) ([7]; Final concentration 600 μg/mL): 0
Serum Micro (precipitation/coagulation score) ([7]; Final concentration 600 μg/mL): 0
Serum Pellet (score) ([7]; Final concentration 600 μg/mL): 0
Serum Macro (precipitation/coagulation score) ([7]; Final concentration 1000 μg/mL): 0
Serum Micro (precipitation/coagulation score) ([7]; Final concentration 1000 μg/mL): 0
Serum Pellet (score) ([7]; Final concentration 1000 μg/mL): 0
pellet after centrifugation ([7]; human serum, 14,000 rpm 10 minutes): no pellets were observed
precipitation, macroscopic and microscopic ([7]; human serum, each ATB200 concentration, 30 minutes at room temperature): No precipitation was observed macroscopically or microscopically
apparent plasma half-life (t1/2) [8]: ~0.75 h
